PMC9260137 (Molecules and Cells, 2022)

Key:
purified protein [1] = substrate: CC(C)C[C@H](N)C(=O)O; experiment: purified protein; details: oxidative deamination, co-substrate NAD+, 37 °C
purified protein [2] = substrate: CC(C)[C@H](N)C(=O)O; experiment: purified protein; details: oxidative deamination, co-substrate NAD+, 37 °C
purified protein [3] = substrate: CC[C@H](C)[C@H](N)C(=O)O; experiment: purified protein; details: oxidative deamination, co-substrate NAD+, 37 °C
purified protein [4] = substrate: NC(=O)c1ccc[n+]([C@@H]2O[C@H](COP(=O)(O)OP(=O)(O)OC[C@H]3O[C@@H](n4cnc5c(N)ncnc54)[C@H](O)[C@@H]3O)[C@@H](O)[C@H]2O)c1; experiment: purified protein; details: 37 °C, amino acid co-substrate not given, varied: cofactor
SEC-MALS = molecular target: the molecule itself; experiment: SEC-MALS

B1: Leucine dehydrogenase from Pseudomonas aeruginosa (enzyme)
chain: MFDMMDAARLEGLHLAQDPATGLKAIIAIHSTRLGPALGGCRYLPYPNDEAAIGDAIRLAQGMSYKAALAGLEQGGGKAVIIRPPHLDNRGALFEAFGRFIESLGGRYITAVDSGTSSADMDCIAQQTRHVTSTTQAGDPSPHTALGVFAGIRASAQARLGSDDLEGLRVAVQGLGHVGYALAEQLAAVGAELLVCDLDPGRVQLAVEQLGAHPLAPEALLSTPCDILAPCGLGGVLTSQSVSQLRCAAVAGAANNQLERPEVADELEARGILYAPDYVINSGGLIYVALKHRGADPHSITAHLARIPARLTEIYAHAQADHQSPARIADRLAERILYGPQ
- Km (purified protein [1]): 1100 ± 100 µM
- Vmax (purified protein [1]): 21100 µM/min/mg
- kcat (purified protein [1]): 5.2 ± 0.5 s⁻¹
- kcat/Km (purified protein [1]): 4300 ± 700 M⁻¹ s⁻¹
- Km (purified protein [2]): 500 ± 100 µM
- Vmax (purified protein [2]): 35000 µM/min/mg
- kcat (purified protein [2]): 9.6 ± 0.8 s⁻¹
- kcat/Km (purified protein [2]): 14400 ± 900 M⁻¹ s⁻¹
- Km (purified protein [3]): 400 ± 100 µM
- Vmax (purified protein [3]): 7870 µM/min/mg
- kcat (purified protein [3]): 1.8 ± 0.1 s⁻¹
- kcat/Km (purified protein [3]): 5800 ± 400 M⁻¹ s⁻¹
- Km (purified protein [4]): 200 ± 100 µM
- Vmax (purified protein [4]): 23200 µM/min/mg
- stoichiometry N (SEC-MALS): 2
